Reference: publication PMC9063327

How the values were obtained:
purified protein [1] = substrate: CC(=O)C(=O)O; assay: purified protein; assay type: biochemical, Lactococcus lactis; details: 50 mM potassium phosphate, 1 mM MgSO4, 0.5 mM thiamine pyrophosphate, 0.2 mM NADH; brackets are 95% CI
purified protein [2] = substrate: CC(C)C(=O)C(=O)O; assay: purified protein; assay type: biochemical, Lactococcus lactis; details: 50 mM potassium phosphate, 1 mM MgSO4, 0.5 mM thiamine pyrophosphate, 0.2 mM NADH; brackets are 95% CI

B1: KivD (Lactococcus lactis subsp. lactis) (protein)
chain: MYTVGDYLLDRLHELGIEEIFGVPGDYNLQFLDQIISHKDMKWVGNANELNASYMADGYARTKKAAAFLTTFGVGELSAVNGLAGSYAENLPVVEIVGSPTSKVQNEGKFVHHTLADGDFKHFMKMHEPVTAARTLLTAENATVEIDRVLSALLKERKPVYINLPVDVAAAKAEKPSLPLKKENSTSNTSDQEILNKIQESLKNAKKPIVITGHEIISFGLEKTVTQFISKTKLPITTLNFGKSSVDEALPSFLGIYNGTLSEPNLKEFVESADFILMLGVKLTDSSTGAFTHHLNENKMISLNIDEGKIFNERIQNFDFESLISSLLDLSEIEYKGKYIDKKQEDFVPSNALLSQDRLWQAVENLTQSNETIVAEQGTSFFGASSIFLKSKSHFIGQPLWGSIGYTFPAALGSQIADKESRHLLFIGDGSLQLTVQELGLAIREKINPICFIINNDGYTVEREIHGPNQSYNDIPMWNYSKLPESFGATEDRVVSKIVRTENEFVSVMKEAQADPNRMYWIELILAKEGAPKVLKKMGKLFAEQNKS
notes: full length, pET28a, N-terminal His tag (kept), expressed in E. coli BL21(DE3), Ni-NTA purified; gene from pGEM-kivD
Purified protein [1]
  Km: 18.81 (17.15, 20.85) mM
  Vmax: 0.0034 (0.0029, 0.0039)
  kcat: 0.28 s⁻¹
  kcat/Km: 15.1 M⁻¹ s⁻¹
Purified protein [2]
  Km: 4.18 (4.08, 4.23) mM
  Vmax: 0.0409 (0.038, 0.044)
  kcat: 3.46 s⁻¹
  kcat/Km: 828 M⁻¹ s⁻¹
